Data from the domain aggregation screens of Martell et al. (2025).

Assay: soluble fraction after stress (log2 fold change); higher = more stays soluble; pooled small domains, quantitative proteomics
Details: stress: 75 degC
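Also: 20 min heating vs room temperature control held 20 min.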

Sequence	soluble fraction (log2)
HMAAAQILRAAVLRVPAEETMRFVTETPELRRYLGASLGPTAAIVRPGQEQNLAAALQSHGILVEFDE	-0.0423
HMAADLIGLEARVTLPLTEDQRGFIETSVRGSLVRRAALSASGRLDRGQRVVILRSEGTTLIVDAL	-3.37
HMAADRRKAERPLIDGQAVMDRFEVGPGPMVGKALKFLLALKRAEPDLDLAGTEERLDAWWNEQL	0.0606
HMAAEFERKNGIVYFFHSSEKPHLNYPHVHARYGEDTISISLRDFTVIGSFSSKKKQKEAVEYVKNK	-0.829
HMAAEPDQQLIKPASDPVLRTMKIEELMKMSEQVKIQMSKAAKNFDYLEAARLRDEHFALENLIKLRS	-0.106
HMAAGELSGEALIALIERHPMALSALATTFGHSESDLRAFVEPLARQGRLRLFESQGTLFVGGIG	-0.5
HMAAHHIILEEREQLSVSGVEEVESFDENTIVMLTNRGTLIVRGEELHIEKLSLDGGDLRVEGSIDSLTYE	-0.465
HMAAHWANFLEALRAGRARRVLVARGVEGWLLKELERLGAPYTLVPRIELDTLLRTTHHQGIAAEVE	-1.46
HMAAPELLTVRERQVAALISDGLSNQQIAHRLHLEVTTVKAHIGSIFNRLDMNNRVQIAIWAHDRQLVFS	-0.161
HMAAQDIILKRNAEQIEAIVKEITDTDVKYRKFTNTEGVTYSIRRSEVFSITYENGTMDLFA	0.248
HMAAQDLIVKTDASQVEARVLEISPDAVRYKRFSNPDGPTYVLPVAEIRYIRYANGEVEYYA	-0.624
HMAAQLAHVPAVTGRPLAEAQRILADNRLNAQVTQQPVAEPKLDGVVIAQKITEGTRTMRGATVPLIVGKY	-0.00421
HMAASGTVNSGGDPLRVRADPNTSSQILTKLSDGTQVEVLEQAENGWYKIAHEGISGFVSGEYLVVH	0.0197
HMAAVAPPVLERIASDLATRFAGTLSPETVDRYVRESYHLLAERAGITRYLPSLTARFAGDRLDA	0.0295
HMAAVEDLPVKSVNGKKYHYYTVQPKESLYSLSHKLGISRQEIIKYNPGVEDGLKAYEDLLFPYTPK	0.192
HMAAVSTDEEFAALGIPAEWIPVLKSNGFQTVESLKKVAPGALFNQLGGLRKKNKLEIAMPSLDQVKAWLA	0.333

Sequence	soluble fraction (log2)
HMADDFISTLFSEGIIIDTEVKQFAERQGSPLQFVRHIASNLPEPRDIITMGEVRSVMREGA	-0.00121
HMADEEEIMVPQVVGKTYDEAKSELENAGFKVEKNEKTSDKASGTVISQSINGGAKKGTSVTLTVSKGN	0.0356
HMADFYEVLGVERNASSDQIKRAYRKLARELHPDVNLDPVAQNRFKEVTEAYEVLSDPNKRSNFDRG	0.0366
HMADGEWAEMQRQLTAAGLLVVGRAAQERIQRLSDISPLIEAAQRSNVVMLSERTVDEVLTLVPT	-0.225
HMADGTSIYAEREVLYVTSPTANTAKVYNVSGALVRTMTLSAGQTVRTALPAGFYVVALGNGNTHKVIV	-2.4
HMADKSLLELPGLDGDKVSALVTAGVRNVNDLADLATDELVEKTGFDEKTAADLIIAARAVVY	0.43
HMADLNQTDIDSITKSVGGVEQYKSLMDWAGKTLSQDAIDSFDDLVNTGNKGSIQLAVNGLVAQYQNDN	0.167
HMADMKIHLRPYAHDTNRWHVDIRLMHPTAATEIRKRLVAPAGLSEAQARAWGERQVPTILGKALGVI	-1.65
HMADNILPAQTDAIKALATENGFSNESLEKYLIENYGTTIYGLSRNQGIQIINLFQSENPPKP	0.277
HMADQIIEGILGKEGGYVNNPNDKGGPTRWGITQTTARAYGYSGDMKALPRDTAKAIYLSQYWT	-0.0711
HMADTPQAYIRQMVQEAGADGIMLSTITDRLRARFKDFKVRDLGYAQMRQYMASTGTYDLEKSGRNFRVHL	-1.06
HMADTSLDHLGVLVRHASDVDAWAEFFENRGVTLASQPRTHRDGARSFYVDDPDGNRVQVIYHPPI	-0.779
HMADWTETELAALRRAYASGTTRVSYDGKSVDYGSAEDLLSRIRTLQGAASDVAADAVAAVDA	-0.0473
HMADYSMDDNAWNAKKADIDEWFEANPDFSANKAITDGLFSIGDSQVEMRKRYWASIAGVFAGLPNSPIG	0.0121
HMAEANTEADFVAIGVRAELLPILQKLGVHTIEQLKGIKATKLFNDIPGMRKKLKLDAVQNPTLQEIEGWL	-0.146
